Measured values: paper PMC4503265 (The Journal of biological chemistry, 2008)
Residue numbers refer to the chain shown, from its start. In names and notes the source's numbering stands.

B1: Myc-tagged wild-type glycine transporter 2 (Myc-GlyT2^WT) (natural protein, mouse, UniProt Q761V0 1-799, looked up)
chain: MDCSAPKEMNKQPANILEAAVPGHRDSPRAPRTSPEQDLPAEAPAATVQPPRVPRSASTGAQTFQSADARACEAQQSGVGFCNLSSPRAQATSAALRDLSEGHSAQANPPSGPAGAGNALHCKIPALRGPEEDANVSVGKGTLEHNNTPAVGWVNMSQSTVVLGTDGIASVLPGSVATTTIPEDEQGDENKARGNWSSKLDFILSMVGYAVGLGNVWRFPYLAFQNGGGAFLIPYLMMLALAGLPIFFLEVSLGQFASQGPVSVWKAIPALQGCGIAMLIISVLIAIYYNVIICYTLFYLFASFVSVLPWGSCNNPWNTPECKDKTKLLLDSCVIGDHPKIQIKNSTFCMTAYPNLTMVNFTSQTNKTFVSGSEEYFKYFVLKISAGIEYPGEIRWPLAFCLFLAWVIVYASLAKGIKSSGKVVYFTATFPYVVLVILLIRGVTLPGAGAGIWYFITPKWEKLTDATVWKDAATQIFFSLSAAWGGLITLSSYNKFHNNCYRDTLIVTCTNSATSIFAGFVIFSVIGFMANERKVNIENVADQGPGIAFVVYPEALTRLPLSPFWAIIFFLMLLTLGLDTMFATIETIVTSISDEFPKYLRTHKPVFTLGCCICFFIMGFPMITQGGIYMFQLVDTYAASYALVIIAIFELVGISYVYGLQRFCEDIEMMIGFKPNIFWKVCWAFVTPTILTFILCFSFYQWEPMTYGSYRYPNWSMVLGWLMLACSVIWIPIMFVIKMYLAPGRFIERLKLVCSPQPDWGPFLAQHRGERYKNMIDPLGTSSLGLKLPVKDLELGTQC
B2: His-GlyT2^T464C expressed in Xenopus laevis oocytes (natural protein, mouse, UniProt Q761V0 1-799, looked up)
chain: B1 chain with T464C
B3: GlyT2^T464C (no tag named) (natural protein, mouse, UniProt Q761V0 1-799, looked up)
chain: B1 chain with T464C
B4: His- or Myc-tagged GlyT2^T464C (natural protein, mouse, UniProt Q761V0 1-799, looked up)
chain: B1 chain with T464C
B5: wild-type dopamine transporter (DAT^WT), no tag named (natural protein, human, UniProt Q01959 1-620, looked up)
chain: MSKSKCSVGLMSSVVAPAKEPNAVGPKEVELILVKEQNGVQLTSSTLTNPRQSPVEAQDRETWGKKIDFLLSVIGFAVDLANVWRFPYLCYKNGGGAFLVPYLLFMVIAGMPLFYMELALGQFNREGAAGVWKICPILKGVGFTVILISLYVGFFYNVIIAWALHYLFSSFTTELPWIHCNNSWNSPNCSDAHPGDSSGDSSGLNDTFGTTPAAEYFERGVLHLHQSHGIDDLGPPRWQLTACLVLVIVLLYFSLWKGVKTSGKVVWITATMPYVVLTALLLRGVTLPGAIDGIRAYLSVDFYRLCEASVWIDAATQVCFSLGVGFGVLIAFSSYNKFTNNCYRDAIVTTSINSLTSFSSGFVVFSFLGYMAQKHSVPIGDVAKDGPGLIFIIYPEAIATLPLSSAWAVVFFIMLLTLGIDSAMGGMESVITGLIDEFQLLHRHRELFTLFIVLATFLLSLFCVTNGGIYVFTLLDHFAAGTSILFGVLIEAIGVAWFYGVGQFSDDIQQMTGQRPSLYWRLCWKLVSPCFLLFVVVVSIVTFRPPHYGAYIFPDWANALGWVIATSSMAMVPIYAAYKFCSLPGSFREKLAYAIAPEKDRELVDRGEVRQFTLRHWLKV
B6: His-tagged wild-type dopamine transporter (His-DAT^WT) (natural protein, human, UniProt Q01959 1-620, looked up)
chain: B5 chain

What was measured:
[1] = molecular target: the molecule itself; test: SDS-resistant band in nonreducing SDS-PAGE with Western blot
cross-linking [2] = molecular target: the molecule itself; test: cross-linking
cross-linking [3] = molecular target: the molecule itself; test: cross-linking; remark: listed apart in the source
pull-down = molecular target: the molecule itself; test: pull-down

Protein	stoichiometry N (cross-linking [3])	also measured
B1	–	stoichiometry N [1]: 2
B2	–	stoichiometry N (cross-linking [2]): 2
B3	2	–
B4	–	stoichiometry N (pull-down): 2
B5	2	–
B6	2	–
